Reference: the nanobody polyreactivity screen of Harvey et al. (2022)

Assay: yeast display, Sf9 membrane polyspecificity reagent, FACS + sequencing; frameworks hold sequencing errors
Method in brief: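 A synthetic nanobody library was expressed on Saccharomyces cerevisiae BJ5465 by galactose induction for 36–48 hours. The library was stained for 1 hour at 4 °C with 10% biotinylated, detergent-solubilized Sf9 membrane reagent and enriched with streptavidin microbeads before FACS. Low and high (top ~1%) gates were set on anti-HA fluorescence for expression and streptavidin fluorescence for reagent binding, and each polyreactivity label reflects the gate of origin.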

Sequence | polyreactivity (PSR sort gate)
QVQLVESGGGLVQAGGSLRLSCAASGLTFRVYAMGWYRQAPGKERELVAAISKRGGSTYYADSVKGRFTISRDNAKNTVYLQMNSLKPEDTAVYYCAAEPPPYEYVYWGQGTQVTVSS | high polyreactivity
QVQLVESGGGLVQAGGSLRLSCAASGSTFTANAMGWYRQAPGKERELVAAISDTTGNTYYADSVKGRFTISRDNAKNTVYLQMNSLKPEDTAVYYCAARQFKSDIVVSLVDSWGQGTHVTVSS | low polyreactivity
QVQLVESGGGLVQAGGSLRLSCAASGLTFGVYAMGWYRQAPGQERELVAASTWGDGSTYYADSVKGRFTISRDNAKNTGYLQMNSLKPEDTAVYYCNAVTRRHKYYYWGQGTQVTVSS | high polyreactivity
QVQLVESGGGLVQAGGSLRLSCAASGRTFVYYAMGWYRQAPGKERELVAAISSGGSTYYADSVKGRFTISRDNAKNTVYLQMNSLKPEDTAVYYCNALRYTHYLLTYGYWGQGTQVTVSS | high polyreactivity
QVQLVESGGGLVQAGGSLRLSCAASGRTFKLYAMGWYRQAPGKERELVAAITESGGSTYYAVSVKGRFTISRDNAKNTVYLQMNSLKPEDTAVYYCAAYASAGTRGGYDYWGQGTQVTVSS | low polyreactivity
QVQLVEKGGGLVQAGGSLRLICAASGYIIWPNAMGWYRQAPGKERELVASITRAGSTNYADSVKGRFTISRDNAKNTVYLQMNSLKPEDTAVYYSAAYFWGGYNYWGQGTQVTVSS | low polyreactivity
QVQLVESGGGLVQAGGRLRLSCAASGGIFDTYVMGRYRQAPGKERELVAGISSTGGSTYYADSVKGRFTISRDNAKNTVYLQMNSLKPEDTAVYYCNAEAGGFDYYGKTYRYGDYWGQGTQVTVSS | low polyreactivity
QVQLVESGGGLVQAGGSLRLSCAASGSTFEGYAMGWYRQAPGKERELVAVISSGSITKYADSVKGRFTISRDNAKNTVYLQMNSLKPEDTAVYYCARKGGIIFASYLLGGYWGQGTQVTVSS | low polyreactivity
QVQLVESGGGLVQAGGSLRLSCAASGSIFGYYALGWSRPAPGKERELVASITSGDSTNYADSVKGRFTISRDNAKKTVYLQMNSQKPEDTAVYYCTTERGDYDEYDYWGQGTQVTVSS | low polyreactivity
QVQLVESGRGLVQAGGSLRLSCAASASTFTLNTMGWYREAAGKERELVAAITASGGRTFYADSVKGPFTISRDNANNTVYLQMTSLKPEDTAFYYCAKRPYGWVSRYDYWGQVTQVTVSS | low polyreactivity
QVQLVGAGGGLVHAGGSLLLSCAASGFTLGSNAMGWYRQAPGKERALVAASSKSGGSTYYADSVKGRFTISRDNAKNTVYLQMTSLKPEDTAGYYCAARPIHYPPYYYWGQGTQVTVSS | high polyreactivity
QVQLVESGGGLVQAGGSLRLSFAASGRIFQFYGMGWYRQAPGKEREFVAAITRNGGNTYYADSVKGRYTISRDNAKNTVDLQMNSLKPEDTAVYYCAAANPRDHRGANDYWGQGTQVTVSS | high polyreactivity
QVQLVESGGGLVQAAGSLRLSCAASGSTFAANAMGWYRQAPGKERELVAAITWTGGSTYYADSVKGRFTISRDNAKNTVYLQMNSLKPEDTAVYYCARRSYGRYYYRYRAYDYWGQGTQVTVSS | high polyreactivity
QVQLVESGGGLVQAGGSLRLSCAASGRIFVPYAMGWYRQAPGKERELVATITFGGGRTYYADSVKGRFTISRDNAKNTVYLQMNSLKPEDTAVYYCAADYYLWRLPVYAQRSFVRGDYWGQGTQVTVSS | low polyreactivity
QVQLVESVRGLVQAGGSLRLICDASGRTFPRYAKGWNRQAPGKEWEFVAAIRYSGDNTYYADSVKGRFTISRDNAKNTVYLQMNSLKPEDTAVYYCAARTYGNYRYSTYYYWGQGTQVTVSS | high polyreactivity
QVQLVESGGGLVQAGRSLRLSCAASGRIFIWYRMGWYRQAPGKERELVSAITRRGGSTYYADSVKGRFTISRDNAKNTVYLQMNSLKPVDTAVYYCNADAIVSPYRLWTVTYSYWGQGTQVSVSS | low polyreactivity
QVQLVESCGGLVQAGGSLRLSCAASGSTFASYAMGWYRQAPGKEREFVAAISRSGGSTYYADSVKGRFTISRDNAKNTVYLQMNSLKPEDTAVYYCAARSPSADEYYYWGQGTQVTVSS | low polyreactivity
QVQLVESGGGLVQAGGSLRLSCAASGFTFTYYAMGWYRQAPGKERELVAAISWSGDSTYYADSVKGRFTISRDNAKNTVYLQMNSLKPEDTAVYYCATEYSHTYDYWGQGTQVTVSS | low polyreactivity
QVQLVESGGGLVQAGGSLRLSCAGSGFIFAQNTMGWYRQAPGKERELVAAITRRGGSTYYADSVKGRFTISRDNAKTTVYLQMNSLKPEDTAVYYCARATVGAWRKMYSWGQGTQVTVSS | high polyreactivity
QVQLVESGGGLVQAGGSLRLTCAASGSTFTAYAMGWYRQAPGKDLELVDAINWSGGTTYYADSVKGRFTISRDNAKNTVYLQMNSLKPEDTAVYYCPVDGNFFGEVRPYDYWGQGTQVTLSS | low polyreactivity
QVQLVESGGGLDQAGGSLRLSCAASGRTYYRYAMGWYRQAPGKESELVAAITWSGGSSYYADSVKGRFTTSRDNAKNTVYLQRNTLKPEDTAVYYCARRLYPYRPTAYDSWGQGTQVTVAS | low polyreactivity
QVQLVDSGGGLVQAGGSLRLSCAASGSTFPIYAMEWYRQAPGKERELVAAISSGGSTYYADSVKGRFTISRDNAKNTVYLQMNSLKPEDTAVYYCAADYSQPNFEYYYWGQGTQVTVSS | low polyreactivity

Sequence | polyreactivity (PSR sort gate)
QVQLVESGGGLVQAGGRLRLSCAASGRIFSINAMGWYRQAPGKERELVAAISNRGGSTYYADSVKGRFTISRDNAKNTVYLQLNSLKPEDTAVYYCAARVATSGNYAPYYYWGQGTQVTVSS | high polyreactivity
QVQLVESGGGLVQAGGSLRLSSAASGSTFHLYAMGWYRQAPGKEREFVAAIRGRGGNTYADSVKGRFTISRDNAKNTVYLQMNSLKPEDTAVYYCAAPLLRDLRSPYSYNYWGQGTQVTVSS | low polyreactivity
QVQLVESGGGLVQAGGSLRLSCAASGFTFDLYAMGWYRQAPGKERELVAAISWSGGSTRYADSVKGRFTISRDNAKNTVYLQMNSLKPEDTAVYYCARQPRLYFKGKLYGYWGQGTQVTVSS | high polyreactivity
QVQLVESGGGLVQAGGSLRLSCAASGRIYLNAMGWYRQAPGKERELVAAISSRGASTYYADSVKGRFTISRDNAKNTVYLQMKSLKPEDTAVFYCAARLRNIYYFRMGYWGQGTQVTVSS | high polyreactivity
QVQLVESGGGLVQAGGSLRLSCAASGITFRTYAMGWYRQAPGKERELVAGIRTRTGSTYYADSVKGRFTISRDNAKNTVYLQMNSLKPEDTAVYYCAAKGSGYYGRQRIYSYTYDYWGQGTQVTVSS | high polyreactivity
QVQLVESGGGLVQAGGSLRLSCAASGIIFEGNVMGWYRQAPGKERELVAAITSDTSTNYADSVKGRFTISRDNAKNTVYIQMNSLKPEDTAVYYCNAVIGTDYYYSGTAEFYYWGQGTQVTVSS | low polyreactivity
QVQLVESGGGLVQAGGSLRLSCAASGRIFRYYAMGWYRQAPGKERELVAAISRSGSTNYADSVKGRFTISRDNAKNTVYLQMNSLKPEDTAVYYCAADSNYLYFWRRYKRMDYWGQGTQVTVSS | high polyreactivity
QVQLVESGGGLVQAGGSLRLSCAASGSTLYDYTMGWYRQAPGKERELVAAIRVSGARTFYADSVKGRFTISRDNAKNTVYLQMNSLKPEDTAVYYCAAEFGSFVSPYNYYYWGQGTQVTVSS | low polyreactivity
QVHHVESGGGLVQARGSLRLSCAASGFIFSSYTMGWYRQAPGKERELLAAITSRGGSTYYADSVKGRVTISRDTAKNTVYLQMNSLKAEDTAVYYCNARRIPYSPYGVHEGNYWGQGTQVTVSS | high polyreactivity
QVQLEESGGGLVQAGGSLRLSYAASGSIYSYYAMGWYRQAPGKERELVAAISRSGTSTYYADSVKGRFTISRDNAKNTVYLQMNSLKPEDTAVYYFGYYYGGDYWGQGTQVTVSS | high polyreactivity
QVQLVETGGGLVQAGGSLRLSCAASGRIFGYYTMGWYRPAPGKERELVADSSGGNTSYADSVKGRFTISRDNAKNTVYLQMNSLKPEDTAVYYCAKDLPGAWRGDDYWGQGTLVTVSS | low polyreactivity
QVQLVESGGGLVQAGGSLRLSCAASGSIFYYNAMGWYRQAPGKERELVAAINSNGGSTYYADSVKGRFTISRDNAKNSVYFQMNSLKPEDTAVYYCNARYPGRTQGRYYYWGHGTQVTVSS | low polyreactivity
QVLLVESRGGLVQAGGSLRLSCAASGSIFFYYAMGWYRQAPGKETELVASISWSGGSTYYADSVKGRFTISRDNAKNTVYLQMNSLKPEDTAVYFCAKVTITFSWETLYDYWGQGTQVTVSS | low polyreactivity
QVQLVESGGGLVQAGGSLRLSCAASGRIFSYYTMGWYRQAPGTERELVAAITWGGGSTSYADSVKGRFTISRDNAKNTVYLQMNSLKPEDTAVYYCAESPGANRMDYWGQGTQVTVSS | low polyreactivity
QVQHVESGGGIVQAGGSLRLSCAASGIIFIGNAMGWYRQAPGKERELVAAITYTGGSTYYADSVKGRFTISRDNAKNTVYLQMNSLKPEDTAVYYCAVDRTHLEDDYWGQGTQVTVSS | low polyreactivity
QVQLVESGGGLGQAGGSLRLSCAPSGFIFTLYAMGWYRQAPGKERELVAAIDTSVASTYYADSVKGRFTLSRENAKYTVYLQMNSLKPEDTAVYYCNADGASYLILSYYQPYDYWGQGTQVTVSS | low polyreactivity
QVQLVESGGGLVQAGGSLRLSCAASGYTFTVYAMGWYRQAPGKERELVAAITWNGASTYYADSVKARFTISRDNAKKTVYLQMNSLKPEDTAVYNCADPNYFYRDRSRLDYWGQGTQVTVSS | low polyreactivity
QVQLVESGGGIVQAGGSLRLSSAASGNKFSLNGMGWYRQAPGKEREFVAAITWSVGSRYYADSVKGRLTISRDNAKHTVYLPMNILKPEDTAVYYCAATVSDLYKIEYYYWGQGTQVSVSS | low polyreactivity
QVQLVESGGGLVQAGGSLRLSCAASGRTSLRNAMGWYRQAPGKEWELVATISQSGGRTHYADSVKGRFTISRENAKNTVYLQMNSLKPEDTAVYYCGAVARFSQYLYNYWGQGTQVTVSS | low polyreactivity
HVQLVESGGGLVQAGGSLRLSCAASGSIFGHYAMGWYRQATGKERELVAAISSGGSTNYADSVKGRFTISRDNAKNTVYLQMNSLIPEDTAVYYCAPTSWWPPGYDYWGQGTQVTVSS | high polyreactivity
QVQLVESGGGLVQAGGSLRLSCAASGFIFAYYAMGWYRQAPGKERELVAGNSGDGSTNYADSVKGRFTISRDNAKNTVYLQMNSLKPEDTAVYYCAAATGVGLEYDYWGQGTQVTVSS | low polyreactivity
